Laboratory results published in US20160158359A1.
Blank lines part the entries; values can stand above or below the binder they belong to.

Experiments:
[1] = biological target: HLA-A*03:01 recombinant MHC class I molecule (human); test: REVEAL MHC-peptide complex stabilisation assay, recombinant HLA-A*03:01; conditions: remark: other sources report otherwise
[2] = biological target: recombinant HLA-A*03:01 MHC class I molecule (human); test: REVEAL MHC-peptide binding assay, stabilisation of ternary complex with recombinant MHC; conditions: remark: other sources report otherwise; scale: score, % of positive control peptide
[3] = biological target: recombinant HLA-A*02:01 MHC class I molecule (human); test: as above; conditions: remark: other sources report otherwise; scale: score, % of positive control peptide
[4] = biological target: HLA-A*11:01 recombinant MHC class I molecule (human); test: REVEAL MHC-peptide binding assay, stabilisation of ternary MHC-peptide complex, recombinant HLA; conditions: remark: other sources report otherwise; scale: % of positive control peptide
[5] = biological target: HLA-B*08:01 recombinant MHC class I molecule (human); test: as above; conditions: remark: other sources report otherwise; scale: % of positive control peptide

In Vitro Score (% of positive control peptide) [1]: 7
B1: … (peptide)
peptide: IFWVQRGAK

In Vitro Score [2]: 0.7
In Vitro Score [3]: 1.2
B2: … synthetic 9-mer peptide (overlapping reference peptide 1, K29R) (peptide)
peptide: VAFIIFWVR

In Vitro Score [4]: 34.6
In Vitro Score [5]: 0.1
B3: … synthetic 9-mer peptide (SEQ ID NO: 100), K29R variant of overlapping reference peptide 1 of the CD28 transmembrane/4-1BB junction (peptide)
peptide: VAFIIFWVR
